# Measured values reported in patent publication US20220251232A1 (INSERM INSTITUT NATIONAL DE LA SANT ET DE LA RECHERCHE M …, published 2022).
# Numbering of substitutions follows the chain as printed.
# T1: human CD25 (Interleukin-2 receptor alpha chain) (human, UniProt P01589 22-272)
# T1 sequence (looked up): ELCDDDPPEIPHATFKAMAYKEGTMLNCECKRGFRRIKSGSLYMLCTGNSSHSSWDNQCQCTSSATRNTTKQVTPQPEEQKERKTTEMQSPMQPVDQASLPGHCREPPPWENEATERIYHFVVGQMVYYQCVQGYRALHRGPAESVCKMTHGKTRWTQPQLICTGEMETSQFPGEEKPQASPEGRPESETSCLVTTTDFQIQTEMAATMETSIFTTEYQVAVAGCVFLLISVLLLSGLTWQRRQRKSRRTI
# B1: 7G7B6 monoclonal antibody (IL-2 non-competitive anti-CD25 antibody) (antibody, V domains shown)
# VH: EVQLVESGGDLVQPRGSLKLSCAASGFTFSSYGMSWVRQTPDKRLELVATINGYGDTTYYPDSVKGRFTISRDNAKNTLYLQMSSLKSEDTAMYFCARDRDYGNSYYYALDYWGQGTSVTVSS
# VL: QIVLSQSPAILSASPGERVTMTCRASSSVSFMHWLQQKPGSSPKPWIYATSNLASGVSARFSGSGSGTSYSLTITRVEAEDAATYYCQQWSSNPPAFGGGTKLEIK
# B2: ALD25H2 anti-CD25 antibody (antibody, V domains shown)
# VH: EVQLVESGGGLVQPGRSMKLSCAASGFTFSNHAMAWVRQAPKKGLEWVAYISYDGDNTYYRDSVKGRFTISRDNAKSTLYLQIDSLRSEDTATYYCTTGGNSGYDWGQGVMVTVSS
# VL: DIQMTQSPSFLSASVGDRVTINCKASQNVNKFVNWYQQKLGEAPRRLIYGTNSLQTGIPSRFSGSGSGTDYTLTISSLQPEDVATYFCQQYSSWPWTFGGGTKLELK
# B3: ALD25H1 anti-CD25 antibody (antibody, V domains shown)
# VH: B2 VH with T28P, N31D, E46Q, K76R, Y80F, I83M
# VL: B2 VL with V33L
# B4: ALD25H4 anti-CD25 antibody (antibody, V domains shown)
# VH: B2 VH with A24V, K76Q, I83M
# VL: B2 VL with A25G, V33L, S92T
# Molecular target: T1, human CD25 (Interleukin-2 receptor …)
# Assay: cell-based or functional assay
row,"IL-2 induced T-cell proliferation, Mean (control = 100)",Binder
1,55,B1
2,81.7,B2
3,78.1,B3
4,73,B4
